In US20170233490A1 (Hoffmann-La Roche, published 2017):

Tests used:
TtSlyD-FKBP-Her3 = biological target: T1, TtSlyD-FKBP-Her3; assay: SPR Biacore 3000, antibody captured, 25 C
T1 construct: N-terminal Met present or not; also called thermo SlyD-Her3; ttSlyD-Her3
T1 chain: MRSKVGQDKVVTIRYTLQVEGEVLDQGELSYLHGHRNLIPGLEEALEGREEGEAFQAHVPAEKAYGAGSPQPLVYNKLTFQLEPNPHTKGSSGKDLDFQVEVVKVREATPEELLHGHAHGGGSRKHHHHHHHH

[1] = biological target: T2, human HER3 Extracellular Domain (ECD) (human, UniProt P21860 20-643); assay: SPR Biacore T200, antibody captured, 25 C
T2 construct: human recombinant, 68 kDa; 'closed' conformation without ligand; also called Her3 ECD; Her-3 ECD
Description: A Biacore T200 instrument (GE Healthcare) was mounted with a CMS series sensor. The sensor was normalized in HBS-ET buffer (10 mM HEPES pH 7.4, 150 mM NaCl, 3 mM EDTA, 0.05% w/v Tween 20) according to the manufacturer's instructions. The sample buffer was the system buffer supplemented with 1 mg/ml CMD (Carboxymethyldextran, Sigma #86524). The system operated at 25° C. 6500 RU RAM-Fcγ (relative units of Fcγ-fragment RamIgG, GE Healthcare) were immobilized according to the manufacturer's instructions using amine coupling EDC/NHS chemistry on all four flow cells. The sensor was deactivated using 1M ethanolamine. […] Concentration dependent kinetics were measured. […] All analytes were injected for 5 min association time and 10 min dissociation time at 100 μl/min flow rate. The sensor capture system was regenerated by a 3 min injection at 10 μl/min of 10 mM glycine pH 1.7. Where possible kinetic data was evaluated using the Biacore T200 evaluation software.

SBP-tagged HER3-ECD = biological target: T3, SBP-tagged HER3-ECD (human, UniProt P21860 20-643); assay: plate assay: SBP-tagged HER3-ECD on streptavidin plate, M-05-74 titrated in the presence of 10 nM Europium-labeled Heregulin-beta, time-resolved fluorescence; half-maximal promotion of HRG binding
T3 construct: from cell culture supernatant, held on a streptavidin plate; not shown: SBP tag
Description: On the next day the wells were washed three times with washing buffer (PBS+0.05% Tween-20) and blocked with PBS containing 1% BSA for one hour. After another three washes with washing buffer, 40 μl antibody solution (in Delfia Binding Buffer) was added to each well as a 2× stock of the desired final concentrations (10⁻³ to 10³ nM, alternatively 10⁻⁴ to 10² nM). […] The plates were incubated on a shaker at room temperature for two hours. Following three washes with Delfia Wash Buffer, Delfia Enhancement Solution was added and incubated on a shaker for 15 minutes (light protected). Finally, the plates were measured in a Tecan Infinite F200 reader using a time-resolved fluorescence measurement protocol.

[2] = biological target: T4, human HER2 (full length, on cells) (human, UniProt P04626 23-1255); assay: IHC (Ventana Benchmark XT) on formalin-fixed, paraffin-embedded HEK293 cells transiently transfected with full length HER2
T4 construct: HEK293 cells transfected with full length HER2 (IHC); MCF-7 cells (co-immunoprecipitation)
Description: All selected clones were tested for reactivity and specificity in IHC. […] After an additional fixation in formalin overnight the Agarose blocks were embedded in paraffin. Untransfected HEK293 cells were used as negative controls and treated accordingly to the transfected cells. After paraffin embedding 3 μm thin sections were prepared using a microtome. The sections were mounted on glass microscopy slides and dried for 2 h. All further steps of the immunohistochemical staining procedure were carried out using a Ventana Benchmark XT. The slides were dewaxed and antigen retrieval was performed by applying heat for 1 hour. For antigen retrieval the Ventana buffer CC1 was used. The antibodies were used at a concentration of 1 μg/ml. For the detection of bound antibody the Ventana UltraView detection kit was used.

HER4 ECD-HRG complex = biological target: T5, HER4 ECD-HRG complex (human, UniProt Q15303 26-651); assay: SPR Biacore 3000, 37 C
T5 construct: HER4 ECD preincubated with a 5-fold molar excess of Heregulin
T5 sequence 1: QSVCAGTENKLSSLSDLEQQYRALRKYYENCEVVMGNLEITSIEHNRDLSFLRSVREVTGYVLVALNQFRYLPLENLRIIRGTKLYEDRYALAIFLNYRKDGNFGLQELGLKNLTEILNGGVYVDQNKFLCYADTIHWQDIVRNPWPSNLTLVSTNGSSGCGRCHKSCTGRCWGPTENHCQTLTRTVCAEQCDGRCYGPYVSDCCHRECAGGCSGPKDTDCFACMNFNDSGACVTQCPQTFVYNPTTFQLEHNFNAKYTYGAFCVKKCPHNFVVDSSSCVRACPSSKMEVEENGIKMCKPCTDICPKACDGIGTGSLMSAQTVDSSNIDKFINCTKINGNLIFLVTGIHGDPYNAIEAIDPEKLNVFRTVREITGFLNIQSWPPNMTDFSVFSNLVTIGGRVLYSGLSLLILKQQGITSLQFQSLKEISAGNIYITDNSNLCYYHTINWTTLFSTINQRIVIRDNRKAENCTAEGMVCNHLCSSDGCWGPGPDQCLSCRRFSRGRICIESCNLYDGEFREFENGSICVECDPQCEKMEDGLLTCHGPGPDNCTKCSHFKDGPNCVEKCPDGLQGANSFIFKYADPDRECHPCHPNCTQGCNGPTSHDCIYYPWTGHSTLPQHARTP
T5 sequence 2: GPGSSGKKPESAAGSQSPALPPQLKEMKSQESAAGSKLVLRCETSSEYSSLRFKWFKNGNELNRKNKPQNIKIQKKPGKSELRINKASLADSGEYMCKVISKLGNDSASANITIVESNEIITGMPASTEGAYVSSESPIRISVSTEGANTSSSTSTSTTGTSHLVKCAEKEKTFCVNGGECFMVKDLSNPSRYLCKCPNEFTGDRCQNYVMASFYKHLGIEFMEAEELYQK

[3] = biological target: T2, human HER3 Extracellular Domain (ECD); assay: SPR Biacore 3000, 37 C
HER3 ECD-HRG complex = biological target: T6, HER3 ECD-HRG complex (human, UniProt P21860 20-643); assay: SPR Biacore 3000, 37 C
T6 construct: HER3 ECD preincubated with a 3- to 6-fold molar excess of Heregulin ('open' conformation); biotinylated Her3-ECD in the ribosome display; also called HER3-ECD/HRG1β

Kd (TtSlyD-FKBP-Her3): 27 nM | Kd [1]: 1.1 nM | MR (Molar Ratio) [1]: 0.1 | koff [1]: 0.00011 s⁻¹ | kon [1]: 96000 M⁻¹ s⁻¹ | EC50 (read off the curve) (SBP-tagged HER3-ECD): ~0.3 nM | binding result [2]: no binding (tested: 1 µg/ml) | Kd (HER4 ECD-HRG complex): 6 nM | MR (HER4 ECD-HRG complex): 0.9 | koff (HER4 ECD-HRG complex): 0.0033 s⁻¹ | kon (HER4 ECD-HRG complex): 580000 M⁻¹ s⁻¹ | t/2diss (HER4 ECD-HRG complex): 4 min | Kd [3]: 4 nM | MR [3]: 0.6 | koff [3]: 8.1e-05 s⁻¹ | kon [3]: 21000 M⁻¹ s⁻¹ | t/2diss [3]: 144 min | Kd (HER3 ECD-HRG complex): 7 nM | MR (HER3 ECD-HRG complex): 0.7 | koff (HER3 ECD-HRG complex): 0.00057 s⁻¹ | kon (HER3 ECD-HRG complex): 79000 M⁻¹ s⁻¹ | t/2diss (HER3 ECD-HRG complex): 20 min
B1: anti-HER3/HER4 antibody M-05-74 (antibody, V domains shown)
VH: QVQLQQSGAELAKPGASVKMSCKTSGYTLTDYWIHWVKQRPGQGLEWIGYINPYTGYTESNQKFKDKATLTADKSSNTAYIQLSSLTSEDSAVYYCARPYYYGDYWGQGTTLTVSS
VL: QIVLTQSPAIMSASPGERVTITCSASSSVSYMHWFQQKPGTSPKLLIYSTSNLASGVPARFSGSGSGTSYSLTISRMEAEDAATYYCQQRSSYPFTFGSGTKLEIK
notes: murine monoclonal IgG from hybridoma (supernatant or purified), bivalent; also called M-074; M-5-74
